Results on three molecules are retold here after patent US20240343811A1 (SHANDONG SIMCERE BIOPHARMACUTICAL, published 2024).

Experiment [1] addresses T1, cynomolgus monkey CD16, full length, on FlpinCHO cells (cynomolgus monkey, UniProt Q8SPW2 17-254).
T1 construct: also called FlpinCHO-cyno CD16; Flipin CHO-cyno CD16
Kind of experiment: FACS on FlpinCHO cells. The method, boiled down:
(§1)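 FlpinCHO cells expressing full-length cynomolgus CD16, blocked in PBS/2% BSA at 2×10⁶ cells/ml, incubated with antibody at various concentrations 1 h on ice. Flow cytometry MFI fitted to give EC50.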

Experiment [2] has as its target T2, human CD16a (158V), full length, on cells (human, UniProt P08637 17-254). Kind of experiment: cell-based or functional assay.
The target in experiment [3] is T1, cynomolgus monkey CD16, full length, on …. Kind of experiment: FACS on FlpinCHO cells. The method, boiled down:
as §1
This is another data set of the same source.

In experiment [4] the target is T2, human CD16a (158V), full length, on …. As to the kind of experiment: FACS on FlpinCHO cells.
In experiment [5] the target is human CD16a (158F), full length, on FlpinCHO cells (human, UniProt P08637 17-254). As to the kind of experiment: FACS on FlpinCHO cells.

Where two headings read alike, the source gives them in different places.

human CD16a (158F), full length, on FlpinCHO cells, sequence (P08637 17-254 limits assumed): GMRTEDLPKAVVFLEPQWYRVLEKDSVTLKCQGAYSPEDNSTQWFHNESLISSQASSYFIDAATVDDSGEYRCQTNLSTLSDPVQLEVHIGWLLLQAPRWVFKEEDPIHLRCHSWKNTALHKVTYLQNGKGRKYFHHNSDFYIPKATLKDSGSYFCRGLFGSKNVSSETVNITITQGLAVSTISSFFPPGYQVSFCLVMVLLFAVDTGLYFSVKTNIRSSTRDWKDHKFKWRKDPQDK
T2 sequence (P08637 17-254 F176V limits assumed): as the sequence (P08637 17-254 limits assumed) above, with F160V counted along it
T1 sequence (Q8SPW2 other isoform, or with tags, fused parts or gaps limits assumed): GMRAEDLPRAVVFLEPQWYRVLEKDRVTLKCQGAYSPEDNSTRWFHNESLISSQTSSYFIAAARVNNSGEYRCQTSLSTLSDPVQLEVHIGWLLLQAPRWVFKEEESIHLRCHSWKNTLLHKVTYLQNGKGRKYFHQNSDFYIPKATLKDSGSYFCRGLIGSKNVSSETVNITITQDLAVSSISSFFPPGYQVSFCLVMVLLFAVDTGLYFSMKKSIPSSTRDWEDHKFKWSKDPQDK

B1: VHH11 VHH-Fc antibody (Fc fusion)
chain: EVQVVESGGGLAQAGGSLRLSCAVSGITFSSYAMGWYRQDPGKQRELVAAINRFGLTNYADSVKGRFTISRDNAKNTVYLQMTSLKPEDTAVYYCNTGGVYSHPNYYTGTYWGQGTQVTVSSEPKSSDKTHTCPPCPAPEFEGGPSVFLFPPKPKDTLMISRTPEVTCVVVAVSHEDPEVKFNWYVDGVEVHNAKTKPREEQYNSTYRVVSVLTVLHQDWLNGKEYKCKVSNKALPAPIEKTISKAKGQPREPQVYTLPPSREEMTKNQVSLTCLVKGFYPSDIAVEWESNGQPENNYKTTPPVLDSDGSFFLYSKLTVDKSRWQQGNVFSCSVMHEALHNHYTQKSLSLSPGK
Turning to B1, in experiment [1], the midpoint of the response, the EC50, lay at 0.41 nM and the “Maximum mean fluorescence intensity” value was 22000.

B2: VHH12 VHH-Fc antibody (Fc fusion)
chain: QVQLVESGGGLVQAGGSLRLSCAASGITFSSYAMGWYRQAPGKQRELVAAINRFGLTNYADFVKGRFTISRVNAKNTVYLQMTSLKPEDTAVYYCNTGGVYSHPDYYTGTYWGQGTQVTVSSEPKSSDKTHTCPPCPAPEFEGGPSVFLFPPKPKDTLMISRTPEVTCVVVAVSHEDPEVKFNWYVDGVEVHNAKTKPREEQYNSTYRVVSVLTVLHQDWLNGKEYKCKVSNKALPAPIEKTISKAKGQPREPQVYTLPPSREEMTKNQVSLTCLVKGFYPSDIAVEWESNGQPENNYKTTPPVLDSDGSFFLYSKLTVDKSRWQQGNVFSCSVMHEALHNHYTQKSLSLSPGK
As for B2, the “EC50, activation activity for Jurkat cell” value in experiment [2] is 0.01 nM. The same molecule registered a Maximum fluorescence value in experiment [2] of 142000. For the same molecule, the EC50 in experiment [3] was found to be 0.35 nM; in experiment [4] it was 0.24 nM; in experiment [5] it was 0.23 nM; in experiment [1] it was 0.24 nM. The “Maximum mean fluorescence intensity” value in experiment [3] stood at 18400; in experiment [4], 8050; in experiment [5], 8730; in experiment [1] it was 22200.

B3: VHH06 VHH-Fc antibody (Fc fusion)
chain: EVQLVESGGGLVQAGGSLRLSCVASGSTWTTYAVRWYRQAPGKQREWVAFISVDGSTNYPDSVKGRFIVSRDNAKNTVYLQMNSLKPEDTADYICRVGGQYWGQGTQVTVSSEPKSSDKTHTCPPCPAPEFEGGPSVFLFPPKPKDTLMISRTPEVTCVVVAVSHEDPEVKFNWYVDGVEVHNAKTKPREEQYNSTYRVVSVLTVLHQDWLNGKEYKCKVSNKALPAPIEKTISKAKGQPREPQVYTLPPSREEMTKNQVSLTCLVKGFYPSDIAVEWESNGQPENNYKTTPPVLDSDGSFFLYSKLTVDKSRWQQGNVFSCSVMHEALHNHYTQKSLSLSPGK
Consider B3, for which, in experiment [2], the “EC50, activation activity for Jurkat cell” value was determined as 0.02 nM and the Maximum fluorescence value was 168000. Besides, in experiment [4], a half-maximal response (EC50) required 0.66 nM and the “Maximum mean fluorescence intensity” value came to 9250. Further, in experiment [5], the EC50 came to 0.61 nM and the “Maximum mean fluorescence intensity” value amounted to 10200.

In general, EC50 refers to the midpoint of the concentration-response curve.
